Data as given in patent publication US20180030090A1 (AGENCY FOR SCIENCE TECHNOLOGY AND RESEARCH, published 2018).
Bridges are numbered along the chain shown (N, C = ends). [ ]: non-standard residue; d: D form. R8 = C=CCCCCCC[C@@](C)(N)C(=O)O; S5 = C=CCCC[C@](C)(N)C(=O)O; Ahx = NCCCCCC(=O)O

Key:
[1] = target: T1, Mdm2 (1-125) (UniProt Q00987 1-125); assay: competitive fluorescence anisotropy, displacement of FAM-labelled 12-1 peptide from Mdm2 (1-125); apparent Kd
T1 construct: range 1-125; also called N-terminal domain of Mdm2; Mdm2 (1 to 125)
Method: All titrations were carried out in triplicate.

[2] = target: Mdm2 in murine T22 cells (murine, UniProt P23804 1-489, limits assumed); assay: cell-based or functional assay
Mdm2 in murine T22 cells, sequence (P23804 whole entry): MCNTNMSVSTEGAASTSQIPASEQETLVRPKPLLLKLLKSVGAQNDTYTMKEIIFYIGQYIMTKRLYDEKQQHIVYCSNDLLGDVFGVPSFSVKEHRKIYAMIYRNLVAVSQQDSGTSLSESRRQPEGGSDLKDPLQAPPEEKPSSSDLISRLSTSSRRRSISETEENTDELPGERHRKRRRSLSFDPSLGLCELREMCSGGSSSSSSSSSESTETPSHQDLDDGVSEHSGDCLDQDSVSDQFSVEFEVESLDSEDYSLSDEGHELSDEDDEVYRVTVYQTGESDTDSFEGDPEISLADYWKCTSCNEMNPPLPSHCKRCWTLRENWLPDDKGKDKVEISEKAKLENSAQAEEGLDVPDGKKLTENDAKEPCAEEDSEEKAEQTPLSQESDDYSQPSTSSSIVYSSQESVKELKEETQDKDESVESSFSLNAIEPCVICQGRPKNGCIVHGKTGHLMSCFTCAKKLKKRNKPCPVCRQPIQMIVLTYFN

T1 sequence (Q00987 1-125 limits assumed): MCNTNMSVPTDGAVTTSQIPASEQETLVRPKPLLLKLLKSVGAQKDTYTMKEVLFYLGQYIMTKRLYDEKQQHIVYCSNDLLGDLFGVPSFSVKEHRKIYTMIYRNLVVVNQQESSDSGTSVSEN

In the case of Ac-KK[Ahx]TSF[R8]EYWALL[S5]ENF-NH2 (staple 7-14) [YS-07 (capped), Ac-KK-Ahx-TSFX8EYWALLS5ENF-NH2], the Kd [1] is reported as 24.4 nM, the “T22 IC50 (0% µM), T22 p53 reporter assay without serum” value [2] is reported as roughly 0.78 µM and the “T22 Ic50 (10% µM), T22 p53 reporter assay with 10% fetal calf serum” value [2] is reported as 9.95 µM.

In the case of Ac-TSF[R8]EYWALL[S5]-NH2 (staple 4-11) [sMTide-02 (capped), Ac-TSFX8EYWALLS5-NH2], the “T22 IC50 (0% µM), T22 p53 reporter assay without serum” value [2] is reported as 2.75 µM and the “T22 Ic50 (10% µM), T22 p53 reporter assay with 10% fetal calf serum” value [2] is reported as 17.9 µM.
